T1: human CD19 exon1-3-his protein (human, UniProt P15391 20-186, limits assumed)
T1 construct: made in HEK293E cells; also called membrane-distal end; not shown: His tag
T1 sequence (looked up): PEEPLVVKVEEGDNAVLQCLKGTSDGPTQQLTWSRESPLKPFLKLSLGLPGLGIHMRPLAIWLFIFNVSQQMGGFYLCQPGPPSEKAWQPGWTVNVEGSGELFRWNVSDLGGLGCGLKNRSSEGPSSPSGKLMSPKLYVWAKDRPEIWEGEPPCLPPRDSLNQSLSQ

T2: murine CD19 protein (murine, UniProt P25918 17-287, limits assumed)
T2 construct: bought protein; also called commercial murine CD19
T2 sequence (looked up): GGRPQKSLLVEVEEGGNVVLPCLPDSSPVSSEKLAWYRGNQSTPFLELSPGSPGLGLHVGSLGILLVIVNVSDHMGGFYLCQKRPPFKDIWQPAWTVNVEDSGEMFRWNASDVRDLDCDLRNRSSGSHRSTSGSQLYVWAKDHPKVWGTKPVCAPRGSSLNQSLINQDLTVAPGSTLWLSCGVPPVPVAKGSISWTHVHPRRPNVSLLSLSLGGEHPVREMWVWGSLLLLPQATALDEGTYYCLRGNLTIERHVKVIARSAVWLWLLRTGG

T3: Human CD19-his protein (human, UniProt P15391 20-291)
T3 construct: bought protein; also called human CD19 protein; recombinant human CD19-His; not shown: His tag
T3 sequence (looked up): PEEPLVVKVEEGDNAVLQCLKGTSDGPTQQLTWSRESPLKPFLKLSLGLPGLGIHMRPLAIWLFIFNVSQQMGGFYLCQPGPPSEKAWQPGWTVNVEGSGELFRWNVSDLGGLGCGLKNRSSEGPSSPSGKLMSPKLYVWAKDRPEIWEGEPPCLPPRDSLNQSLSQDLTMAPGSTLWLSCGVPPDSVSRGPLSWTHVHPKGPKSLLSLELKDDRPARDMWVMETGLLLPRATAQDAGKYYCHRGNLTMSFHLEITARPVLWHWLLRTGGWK

T4: human CD19 exon1-3-His tag protein (human, UniProt P15391 20-186, limits assumed)
T4 construct: membrane-distal part of the extracellular region, made in HEK293E cells; not shown: His tag
T4 sequence (looked up): T1 sequence (looked up)

T5: Human CD19-his protein (human, UniProt P15391 20-291)
T5 construct: bought protein; also called recombinant human CD19-His; CD19 full-length protein; not shown: His tag
T5 sequence (looked up): T3 sequence (looked up)

B1: F3.126.15 (antibody, human IgG1, V domains shown)
VH: QVQLQQPGAELVMPGASVKLSCKASGYTFTSYWMHWVKQRPGQGLEWIGEIDPSDSYTTYNQNFKGKATLTVDISTSTAYIQLSNLTSEDSAVYYCARLTGNYIHYWGQGTTLTVSS
VL: DIVMTQSHKFMSTSVGDRVSITCKASQDVSPAVAWYQQRPGQCPKLLIFSSSYRSTGVPDRFTGSGSGTDFTFTISSVQAEDLAVYYCQQHYSLPLTFGAGTKLELK
notes: human-murine chimeric antibody, human IgG1
B2: F4.276.12 (antibody, human IgG1, V domains shown)
VH: EIQLQQSGPELVKPGASVKVSCKASGYAFSAYNMYWVKQSHGKSLEWIGYIDPYNGGTNYNQKFKGKATLTVDKSSSTAYMHLNSLTSEDSAVYYCARDGYEVTYWGQGTLVTVSA
VL: QIVLTQSPALMSASLGEEITLTCSASSSVTYMHWSQQKSGTSPRLLIYSTSNLASGVPSRFSGSGSGTFYSLTISSVEAEDAADYYCHQWSSYPWTFGGGTKLEIK
notes: human-murine chimeric antibody, human IgG1 constant
B3: F5.10.6 (antibody, human IgG1, V domains shown)
VH: DVQLQESGPGLVKPSQSLSLTCSVTDYSITSGYYWTWIRQFPGNKLEWMGYISYDGSTNYNPSLKNRFSITRDTSKNQFFLKLNSVIIEDTATYYCARDRMSTTWYFDVWGTGTTVTVSS
VL: DIVLTQSPASLAVSLGQRATISCRASESVDNYGISFMHWYQQKPGQPPKLLIYRASKTESGIPARFSGSGSRTDFTLTINPVETDDVATYYCQQSNKYPRTFGGGTKVEIK
notes: as for B2
B4: F4.272.13 (antibody, human IgG1, V domains shown)
VH: QVQLKESGPGLVAPSQSLSITCTVSGFSLTDYGVSWIRQPPGKGLEWLGVIWGSETTFYNSALKSRLSISKDNSKSQLFLQMNSLQADDTAIYYCAKHHYYGGSFSMDYWGQGTSVTVSS
VL: DIQMTQTTSSLSASLGDRVTISCRASQDINNYLNWYQQKPDGTVKFLIYYTSRLHSGVPSRFSGSGSGTDYSLTISDLEQEDIATYFCQQGNTLPYTFGGGTKLEIK
notes: as for B2
B5: F3.148.10 (antibody, human IgG1, V domains shown)
VH: EVQLQQSGAELVRPGSSVTMSCKTSGYTFTNYGINWVKQRPGQGLEWIGYIFIGNDYTEYNEKFKGKATLTSDTSSSTAYMQLSSLTSEDSAIYFCTRFYSNYYGMDPWGQGTSVTVSS
VL: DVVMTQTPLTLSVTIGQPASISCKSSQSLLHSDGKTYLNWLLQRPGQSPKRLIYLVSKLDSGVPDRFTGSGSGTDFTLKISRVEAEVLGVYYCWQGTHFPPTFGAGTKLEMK
notes: as for B2
B6: F3.109.1 (antibody, human IgG1, V domains shown)
VH: B5 VH with T19K, N31S, F52Y, Y60F, T97A, Y103S, Y104D, G105P, P108Y, Q111H
VL: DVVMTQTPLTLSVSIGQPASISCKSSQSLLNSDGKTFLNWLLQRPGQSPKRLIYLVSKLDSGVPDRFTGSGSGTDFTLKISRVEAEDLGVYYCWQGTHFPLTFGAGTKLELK
notes: as for B2
B7: F6.5.20 (antibody, human IgG1, V domains shown)
VH: QVQLQQPGAELVKPGASVKLSCKASGYTFTSYWMQWVKQRPGQGLEWIGEIDPSDSYTNYNQKFKGKASLTVDTSSSTAYMQLSSLTSEDSAVYYCARWGLLRNYYVMDYWGQGTSVTVSS
VL: EIVLTQSPTTMAASPGEKITITCSASSSISSNYLHWYQQKPGFSPKLLIYRTSNLASGVPARFSGSGSGTSYSLTIGTMEAEDVATYYCQQGSSIPRMLTFGAGTKLELK
notes: as for B2
B8: F3.114.12 (antibody, human IgG1, V domains shown)
VH: DVQLQESGPGLVKPSQSLSLTCSVTGYSITSGYDWNWIRQFPGNKLEWMGYISYDGKNNYNPSLRNRISITRDTSKNQFFLKLNSVTTEDTATYYCARRDLRGYFDVWGTGTTVTVSS
VL: DIVLTQSPATLSVTPGDRVSLSCRASQSISNYLHWYQQKSHESPRLLIKYASLSISGIPSRFSGSGSGTDFTLSINSVETEDFGVYFCQQSNSWPLTFGAGTKLELK
notes: as for B2
B9: F3.74.4 (antibody, human IgG1, V domains shown)
VH: QVQLQQSGAELVRPGASVTLSCKASGYTFTDYEMHWVKQTPVHGLEWIGGIAPETGLTTYNQKFEDKAILTADKSSRTAYMELRSLTSEDSAVYFCNPNNYGLWGTGTTVTVSS
VL: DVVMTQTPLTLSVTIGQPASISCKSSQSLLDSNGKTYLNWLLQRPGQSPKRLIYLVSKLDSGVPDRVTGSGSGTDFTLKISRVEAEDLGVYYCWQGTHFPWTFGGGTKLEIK
notes: as for B2
B10: F6.2.9 (antibody, human IgG1, V domains shown)
VH: QVQLQQSGAELVKPGASVKISCKASGYAFSSYWMNWVKQRPGKGLEWIGQIYPGDGDTNYNGKFKGKATLTADKSSSTGYMQLSSLTSEDSAVYFCARSRITSVVDWYFDVWGTGTTVTVSS
VL: QIVLSQSPAILSASPGEKVTMTCRASSSVSYMHWYQQKPGSSPKPWIYATSNLASGVPARFSGSGSGTSYSLTISRVEAEDAATYYCQQWSSNPPTFGAGTKLELK
notes: as for B2

Numbering of substitutions follows the chain as printed.

The target in the first experiment is T1, human CD19 exon1-3-his protein. Briefly: ELISA, coated at 2 ug/mL. The procedure:
(§1) Human CD19-his protein (purchased from ACROBiosystems, catalog number: CD9-H52H2) was diluted with PBS to a final concentration of 4 μg/mL, and then added to a 96-well ELISA plate at 100 μl/well. The plate was sealed with a plastic film and incubated overnight at 4° C., the plate was washed 2 times with PBS the next day, and then a blocking solution [PBS+2% (w/w) BSA] was added for blocking at room temperature for 2 h. The blocking solution was poured off, and 100 nM gradiently diluted CD19 chimeric antibody or control antibody was added at 50 μl/well. After incubation at 37° C. for 2 h, the plate was washed 3 times with PBS. […] TMB substrate was added at 50 μl/well, and incubated at room temperature for 10 min, and then a stop solution (1.0 N HCl) was added at 50 μl/well. The OD450 nm values were read by an ELISA microplate reader (Multimode Plate Reader, EnSight, purchased from Perkin Elmer).
(§2) CD19 protein contains 4 exons in the extracellular region, in which exons 1-3 are located at the membrane-distal end and exon 4 is located at the membrane-proximal end. […] To identify the distribution of antigen binding epitopes of the chimeric antibodies, human CD19 exon 1-3-His (membrane-distal end) was used to coat at 2 μg/mL according to the ELISA method in example 5.1.
On to B1, for which the binding result is “no binding”.

A further experiment has as its target T2, murine CD19 protein. Description: ELISA, coated murine CD19. How it is done: as §1
In order to detect the species cross-binding activity of the chimeric antibodies, an ELISA plate was coated with commercial murine CD19 (ACROBiosystems, catalog number: 50510-M08H) and monkey CD19 (ACROBiosystems, catalog number: 90051-C08H), respectively, and the ELISA detection was performed according to the method in example 5.1.
Regarding B1, the binding result is “no binding”.

In the next experiment the target is T3, Human CD19-his protein. Description: ELISA, antibody at 10 nM. How it is done: as §1
For B1, the OD450 came to 0.46.

In a further experiment the target is T3, Human CD19-his protein. Briefly: ELISA, antibody at 100 nM. The procedure: as §1
Regarding B1, the OD450 worked out at 0.7.

For another experiment, the target named is T3, Human CD19-his protein. Briefly: ELISA, antibody at 0.01 nM. The procedure: as §1
B1 registered an OD450 of 0.05.

Another experiment has as its target T3, Human CD19-his protein. Briefly: ELISA, antibody at 0.10 nM. The procedure: as §1
On to B1, for which the OD450 was 0.07.

The target in a further experiment is T3, Human CD19-his protein. Briefly: ELISA, antibody at 1.00 nM. The procedure: as §1
For B1, the OD450 is 0.2.

A further experiment has as its target T3, Human CD19-his protein. Description: ELISA, antibody at 0.001 nM. How it is done: as §1
With B1, the OD450 came out at 0.05.

For a further experiment, the target named is T3, Human CD19-his protein. Description: ELISA, antibody at 0.0001 nM. How it is done:
as §1
The molecule B1 gave an OD450 of 0.05.

The target of the next experiment is T4, human CD19 exon1-3-His tag protein. Description: ELISA on coated human CD19 exon 1-3-His. The procedure:
as §1, §2
On to B2, for which the binding result was “no binding (tested: 100 nM)”.

For the molecule B3, the binding result was “no binding (tested: 100 nM)”.

On to B4, for which the binding result was “no binding (tested: 100 nM)”.

On to B5, for which the “EC50 (read off the curve)” value was around 0.2 nM.

As to B6, the “EC50 (read off the curve)” value was around 0.1 nM.

For the molecule B7, the binding result is recorded as “no binding (tested: 100 nM)”.

With B8, the binding result is recorded as “no binding (tested: 100 nM)”.

As to B9, the “EC50 (read off the curve)” value was around 0.3 nM.

In the case of B10, the binding result is given as “no binding (tested: 100 nM)”.

In another experiment the target is T5, Human CD19-his protein. Briefly: SPR Biacore, Ab captured on Protein A, CD19-His analyte. The procedure:
A sample buffer and a running buffer were HBS-EP+ (10 mM HEPES, 150 mM NaCl, 3 mM EDTA and 0.05% surfactant P20) (GE Healthcare; BR-1006-69). The flow-through cell was set to 25° C. The sample block was set to 16° C. Both were pretreated with the running buffer. In each cycle, an antibody to be detected was first captured with a Protein A chip, and then a single concentration of CD19 antigen protein was injected. The binding and dissociation processes of the antibody and the antigen protein were recorded, and finally Glycine pH 1.5 (GE Healthcare; BR-1003-54) was used to complete chip regeneration. The binding was measured by injecting different concentrations of recombinant human CD19-His proteins in a solution for 240 s with a flow rate of 30 μl/min. The concentration started from 200 nM (see the detailed results for the actual concentration in the test) and was diluted at 1:1, making a total of 5 concentrations. The dissociation phase was monitored for up to 600 s and was triggered by switching from sample solution to running buffer. The surface was regenerated by washing with a 10 mM glycine solution (pH 1.5) for 30 s at a flow rate of 30 μl/min. Bulk refractive index difference was corrected by subtracting the response obtained from the goat anti-human Fc surface. Blank injection was also subtracted (=double reference). For calculation of apparent KD and other kinetic parameters, Langmuir 1:1 model was used.
Consider B2, for which the Kd worked out at 3.33 nM, the koff is 0.00081 s⁻¹ and the kon was determined as 243000 M⁻¹ s⁻¹.

Consider B3, for which binding was put at a Kd of 1.84 nM, the koff stood at 0.000151 s⁻¹ and the kon was 82100 M⁻¹ s⁻¹.

Turning to B4, the Kd is 0.294 nM, the koff amounted to 6.51e-05 s⁻¹ and the kon came to 221000 M⁻¹ s⁻¹.

Molecule B5 returned a Kd of 5.32 nM, a koff of 0.00119 s⁻¹ and a kon of 224000 M⁻¹ s⁻¹.

The molecule B6 had a Kd of 5.67 nM, a koff of 0.00108 s⁻¹ and a kon of 190000 M⁻¹ s⁻¹.

As for B7, binding was characterised by a dissociation constant (Kd) of 5.28 nM, the koff was 0.00187 s⁻¹ and the kon is 355000 M⁻¹ s⁻¹.

In the case of B8, the Kd worked out at 6.03 nM, the koff stood at 0.000465 s⁻¹ and the kon was determined as 77000 M⁻¹ s⁻¹.

For the molecule B9, binding was put at a Kd of 18.7 nM, the koff stood at 0.000879 s⁻¹ and the kon is 47100 M⁻¹ s⁻¹.

B10 had a Kd of 21.7 nM, a koff of 0.0033 s⁻¹ and a kon of 152000 M⁻¹ s⁻¹.
